From PMC10681732

T1: RIG-I CTD WT (crystal) (human, UniProt O95786 802-925)
T1 sequence: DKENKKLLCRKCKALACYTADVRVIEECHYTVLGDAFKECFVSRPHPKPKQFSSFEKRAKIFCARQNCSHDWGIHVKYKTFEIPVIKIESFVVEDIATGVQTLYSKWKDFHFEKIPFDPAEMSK

T2: RIG-I CTD I875A (crystal) (human, UniProt O95786 802-925, I875A)
T2 sequence: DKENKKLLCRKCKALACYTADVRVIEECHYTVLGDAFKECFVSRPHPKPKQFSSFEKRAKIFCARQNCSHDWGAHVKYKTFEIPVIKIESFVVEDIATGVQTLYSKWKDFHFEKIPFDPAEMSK

B1: OH-dsRNA (crystallization) (dsRNA)
RNA 1: GACGCUAGCGUC
RNA 2: GACGCUAGCGUC
B2: p-dsRNA (crystallization) (dsRNA)
RNA 1: GACGCUAGCGUC
RNA 2: GACGCUAGCGUC
modifications: 5'-monophosphate

Legend:
[1] = molecular target: T1, RIG-I CTD WT (crystal); assay: X-ray crystallography
[2] = molecular target: T2, RIG-I CTD I875A (crystal); assay: X-ray crystallography

| Binder | binding result [1] | binding result [2] |
| --- | --- | --- |
| B1 | binds | – |
| B2 | – | binds |
